US20240279331A1 (University of California, published 2024)

T1: NCR3 (antigen of the ELISA in the affinity-maturation table) (human, UniProt O14931 19-135, limits assumed)
T1 construct: also called Natural Cytotoxicity Triggering Receptor 3
T1 sequence (looked up): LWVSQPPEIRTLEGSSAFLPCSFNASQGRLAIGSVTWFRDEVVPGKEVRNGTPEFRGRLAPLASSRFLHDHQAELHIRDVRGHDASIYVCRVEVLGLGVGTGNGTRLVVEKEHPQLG

T2: NCR3 on cell (on-cell binding in the affinity-maturation table) (human, UniProt O14931 19-201, limits assumed)
T2 construct: On cell
T2 sequence (looked up): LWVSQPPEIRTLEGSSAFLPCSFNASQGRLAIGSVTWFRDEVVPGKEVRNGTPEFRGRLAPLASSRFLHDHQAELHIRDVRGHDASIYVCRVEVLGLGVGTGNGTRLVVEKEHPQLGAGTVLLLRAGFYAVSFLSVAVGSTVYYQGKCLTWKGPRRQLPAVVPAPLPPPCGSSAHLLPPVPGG


Assays:
[1] = biological target: T1, NCR3 (antigen of the ELISA in the …); experiment: ELISA, Fab on NCR3
[2] = biological target: T2, NCR3 on cell (on-cell binding in the …); experiment: on-cell binding, Fab on NCR3

Binder	EC50 [1] [nM]	EC50 [2] [nM]
NCR3.18.1 (Fab, V domains shown, substitutions derived by comparing with parental HC3) VH: EVQLVESGGGLVQPGGSLRLSCAASGFNVSSSSIHWVRQAPGKGLEWVASISSSSGSTSYADSVKGRFTISADTSKNTAYLQMNSLRAEDTAVYYCARRASSRFRSYYDSFYYAGMDYWGQGTLVTVSS VL: DIQMTQSPSSLSASVGDRVTITCRASQSVSSAVAWYQQKPGKAPKLLIYSASSLYSGVPSRFSGSRSGTDFTLTISSLQPEDFATYYCQQSSSSLITFGQGTKVEIKR	0.78	2.14
NCR3.18.9 (Fab, V domains shown, substitutions derived against parental HC3) VH: EVQLVESGGGLVQPGGSLRLSCAASGFNVSSSSIHWVRQAPGKGLEWVASISSSSGSTSYADSVKGRFTISADTSKNTAYLQMNSLRAEDTAVYYCARRKSSSYWSYYDSFYYAGMDYWGQGTLVTVSS VL: DIQMTQSPSSLSASVGDRVTITCRASQSVSSAVAWYQQKPGKAPKLLIYSASSLYSGVPSRFSGSRSGTDFTLTISSLQPEDFATYYCQQSSSSLITFGQGTKVEIKR	0.51	2.24
NCR3.18.17 (Fab, V domains shown, substitutions derived against parental HC3) VH: EVQLVESGGGLVQPGGSLRLSCAASGFNVSSSSIHWVRQAPGKGLEWVASISSSSGSTSYADSVKGRFTISADTSKNTAYLQMNSLRAEDTAVYYCARRVGSYYMSYYDSFYYAGMDYWGQGTLVTVSS VL: DIQMTQSPSSLSASVGDRVTITCRASQSVSSAVAWYQQKPGKAPKLLIYSASSLYSGVPSRFSGSRSGTDFTLTISSLQPEDFATYYCQQSSSSLITFGQGTKVEIKR	0.58	2.11
NCR3.18.15 (Fab, V domains shown, substitutions derived against parental HC3) VH: EVQLVESGGGLVQPGGSLRLSCAASGFNVSSSSIHWVRQAPGKGLEWVASISSSSGSTSYADSVKGRFTISADTSKNTAYLQMNSLRAEDTAVYYCARRTSSHYISYYDSFYYAGMDYWGQGTLVTVSS VL: DIQMTQSPSSLSASVGDRVTITCRASQSVSSAVAWYQQKPGKAPKLLIYSASSLYSGVPSRFSGSRSGTDFTLTISSLQPEDFATYYCQQSSSSLITFGQGTKVEIKR	2.98	6.76
NCR3.18.12 (Fab, V domains shown, substitutions derived against parental HC3) VH: EVQLVESGGGLVQPGGSLRLSCAASGFNVSSSSIHWVRQAPGKGLEWVASISSSSGSTSYADSVKGRFTISADTSKNTAYLQMNSLRAEDTAVYYCARRRASYYKTYYDSFYYAGMDYWGQGTLVTVSS VL: DIQMTQSPSSLSASVGDRVTITCRASQSVSSAVAWYQQKPGKAPKLLIYSASSLYSGVPSRFSGSRSGTDFTLTISSLQPEDFATYYCQQSSSSLITFGQGTKVEIKR	0.53	2.13
NCR3.18.7 (Fab, V domains shown, substitutions derived against parental HC3) VH: EVQLVESGGGLVQPGGSLRLSCAASGFNVSSSSIHWVRQAPGKGLEWVASISSSSGSTSYADSVKGRFTISADTSKNTAYLQMNSLRAEDTAVYYCARRISSYYISYYDSFYYAGMDYWGQGTLVTVSS VL: DIQMTQSPSSLSASVGDRVTITCRASQSVSSAVAWYQQKPGKAPKLLIYSASSLYSGVPSRFSGSRSGTDFTLTISSLQPEDFATYYCQQSSSSLITFGQGTKVEIKR	1.23	3.19
NCR3.18.14 (Fab, V domains shown, substitutions derived against parental HC3) VH: EVQLVESGGGLVQPGGSLRLSCAASGFNVSSSSIHWVRQAPGKGLEWVASISSSSGSTSYADSVKGRFTISADTSKNTAYLQMNSLRAEDTAVYYCARRTGSYYMTYYDSFYYAGMDYWGQGTLVTVSS VL: DIQMTQSPSSLSASVGDRVTITCRASQSVSSAVAWYQQKPGKAPKLLIYSASSLYSGVPSRFSGSRSGTDFTLTISSLQPEDFATYYCQQSSSSLITFGQGTKVEIKR	0.57	3.11
NCR3.18.3 (Fab, V domains shown, substitutions derived against parental HC3) VH: EVQLVESGGGLVQPGGSLRLSCAASGFNVSSSSIHWVRQAPGKGLEWVASISSSSGSTSYADSVKGRFTISADTSKNTAYLQMNSLRAEDTAVYYCARRIGSIYRSYYDSFYYAGMDYWGQGTLVTVSS VL: DIQMTQSPSSLSASVGDRVTITCRASQSVSSAVAWYQQKPGKAPKLLIYSASSLYSGVPSRFSGSRSGTDFTLTISSLQPEDFATYYCQQSSSSLITFGQGTKVEIKR	0.68	1.61
NCR3.18.18 (Fab, V domains shown, substitutions derived against parental HC3) VH: EVQLVESGGGLVQPGGSLRLSCAASGFNVSSSSIHWVRQAPGKGLEWVASISSSSGSTSYADSVKGRFTISADTSKNTAYLQMNSLRAEDTAVYYCARRVSSNYMSYYDSFYYAGMDYWGQGTLVTVSS VL: DIQMTQSPSSLSASVGDRVTITCRASQSVSSAVAWYQQKPGKAPKLLIYSASSLYSGVPSRFSGSRSGTDFTLTISSLQPEDFATYYCQQSSSSLITFGQGTKVEIKR	2.2	3.39
NCR3.18.11 (Fab, V domains shown, substitutions derived against parental HC3) VH: EVQLVESGGGLVQPGGSLRLSCAASGFNVSSSSIHWVRQAPGKGLEWVASISSSSGSTSYADSVKGRFTISADTSKNTAYLQMNSLRAEDTAVYYCARRLGSRYRSYYDSFYYAGMDYWGQGTLVTVSS VL: DIQMTQSPSSLSASVGDRVTITCRASQSVSSAVAWYQQKPGKAPKLLIYSASSLYSGVPSRFSGSRSGTDFTLTISSLQPEDFATYYCQQSSSSLITFGQGTKVEIKR	0.77	1.47
NCR3.18.6 (Fab, V domains shown, substitutions derived against parental HC3) VH: EVQLVESGGGLVQPGGSLRLSCAASGFNVSSSSIHWVRQAPGKGLEWVASISSSSGSTSYADSVKGRFTISADTSKNTAYLQMNSLRAEDTAVYYCARRISSSYMSYYDSFYYAGMDYWGQGTLVTVSS VL: DIQMTQSPSSLSASVGDRVTITCRASQSVSSAVAWYQQKPGKAPKLLIYSASSLYSGVPSRFSGSRSGTDFTLTISSLQPEDFATYYCQQSSSSLITFGQGTKVEIKR	1.38	4.67
NCR3.18.4 (Fab, V domains shown, substitutions derived against parental HC3) VH: EVQLVESGGGLVQPGGSLRLSCAASGFNVSSSSIHWVRQAPGKGLEWVASISSSSGSTSYADSVKGRFTISADTSKNTAYLQMNSLRAEDTAVYYCARRISSHYMSYYDSFYYAGMDYWGQGTLVTVSS VL: DIQMTQSPSSLSASVGDRVTITCRASQSVSSAVAWYQQKPGKAPKLLIYSASSLYSGVPSRFSGSRSGTDFTLTISSLQPEDFATYYCQQSSSSLITFGQGTKVEIKR	2.29	1.44
NCR3.18.8 (Fab, V domains shown, substitutions derived against parental HC3) VH: EVQLVESGGGLVQPGGSLRLSCAASGFNVSSSSIHWVRQAPGKGLEWVASISSSSGSTSYADSVKGRFTISADTSKNTAYLQMNSLRAEDTAVYYCARRISSYYVSYYDSFYYAGMDYWGQGTLVTVSS VL: DIQMTQSPSSLSASVGDRVTITCRASQSVSSAVAWYQQKPGKAPKLLIYSASSLYSGVPSRFSGSRSGTDFTLTISSLQPEDFATYYCQQSSSSLITFGQGTKVEIKR	0.95	2.74
NCR3.18.13 (Fab, V domains shown, substitutions derived against parental HC3) VH: EVQLVESGGGLVQPGGSLRLSCAASGFNVSSSSIHWVRQAPGKGLEWVASISSSSGSTSYADSVKGRFTISADTSKNTAYLQMNSLRAEDTAVYYCARRRSSYYMTYYDSFYYAGMDYWGQGTLVTVSS VL: DIQMTQSPSSLSASVGDRVTITCRASQSVSSAVAWYQQKPGKAPKLLIYSASSLYSGVPSRFSGSRSGTDFTLTISSLQPEDFATYYCQQSSSSLITFGQGTKVEIKR	0.98	2.55
NCR3.18.19 (Fab, V domains shown, substitutions derived against parental HC3) VH: EVQLVESGGGLVQPGGSLRLSCAASGFNVSSSSIHWVRQAPGKGLEWVASISSSSGSTSYADSVKGRFTISADTSKNTAYLQMNSLRAEDTAVYYCARRVSSPYMSYYDSFYYAGLDYWGQGTLVTVSS VL: DIQMTQSPSSLSASVGDRVTITCRASQSVSSAVAWYQQKPGKAPKLLIYSASSLYSGVPSRFSGSRSGTDFTLTISSLQPEDFATYYCQQSSSSLITFGQGTKVEIKR	0.38	1.41
NCR3.18.10 (Fab, V domains shown, substitutions derived against parental HC3) VH: EVQLVESGGGLVQPGGSLRLSCAASGFNVSSSSIHWVRQAPGKGLEWVASISSSSGSTSYADSVKGRFTISADTSKNTAYLQMNSLRAEDTAVYYCARRKSSYYMSYYDSFYYAGMDYWGQGTLVTVSS VL: DIQMTQSPSSLSASVGDRVTITCRASQSVSSAVAWYQQKPGKAPKLLIYSASSLYSGVPSRFSGSRSGTDFTLTISSLQPEDFATYYCQQSSSSLITFGQGTKVEIKR	1.11	4.09
